Experimental findings from a protein production outcome set (Wang et al. 2014) are described below.

This series can be described thus: label from the status in PepcDB records.
In the case of “MRQATMDFSSSSVFDQHKGDSSEEVDLTMVYQAASNGDVNSLTAVIREDPSILECCDSEGCTPLMHAVSGRQVDTVKLLLKMGANINTQDAYGRTSLCLATYLGWLEGCVSLLRNGAKHNIPDKNGRLPLHAATAEPDVRLLIVLLQQSSLSEINHQDTEGMTPLHWAAFHNRPQHTQMLLKKGADPTLVDKDFKTALHWAVQYGRSRVACQDVLGHAQGPGRASQETTISVSCQHALLGISNIYNKAGRITEASSQQLTSDFRTPLHWAAAAGKAECVQSLLDLGMDSNLRDINESTPLAYALYCGHTACVRLLSREGRAEPARPLPSQNSQPQKKEGRFSVLNQIFCKNKKEEQKAHQKEQSRARPKEEDTSEVNDIIATFDSVVDTNCQDQPGDQVDMVVFKKRTSENSKYLLPEKKSLARKGLPPIRTQSLPPITLGSNFLTASHGATSHAGLNSGLQHTAQRSQKSRSEQDLLNNRTGCQVSLDNPWKGDTRQAFSCKAWTVSSSDKLLDRMFTGQPGHQELSGPPHLPHLPNPSPGQGLQHLSPNRPKVRDFPFTRNSLAPLPDQKFLSGEPLRTNRVLPAIPSQRGHDPPAEESEWSSSPTHDEN”, the protein production result is on record as “failed”.

As to “PSMPASPVLTKAGITWLSLQWSKPSGTPSDEGISYILEMEEETSGYGFKPKYDGEDLAYTVKNLRRSTKYKFKVIAYNSEGKSNPSEVVEFTTCPD”, the protein production entry was “not failed”.

Consider “MEESRESPAEHGYYMPAEWDSHAQTWIGWPERQDNWRHNALPAQRVFADVAKAISKFEPVTVCASPAQWENARKQLPEDIRVVEMSMNDSWFRDSGPTFIVRKRPVKLSSLNRNIAGIDWNFNAWGGANDGCYNDWSHDLLVSRKILALERIPRFQHSMILEGGSIHVDGEGTCLVTEECLLNKNRNPHMSKEQIEEELKKYLGVQSFIWLPRGLYGDEDTNGHIDNMCCFARPGVVLLSWTDDETDPQYERSVEALSVLSNSIDARGRKIQVIKLYIPEPLYMTEEESSGITQDGEAIPRLAGTRLAASYVNFYIANGGIIAPQFGDPIRDKEAIRVLSDTFPHHSVVGIENAREIVLAGGNIHCITQQQPAEPTSVAENGH”, for which the protein production result is “not failed”.

As for “MLEVHIPSVGPEAEGPRQSPEKSHMVFRVEVLCSGRRHTVPRRYSEFHALHKRIKKLYKVPDFPSKRLPNWRTRGLEQRRQGLEAYIQGILYLNQEVPKELLEFLRLRHFPTDPKASNWG”, the protein production entry is “not failed”.

On to “LYATLSGVSLALADSADRRILLQTVCDVCVREAGFEMAWVGLLDADEKRVEVAALSRGERASMPGELPGHAEDAQAPGPVSRALRSRAAQVSNDAQSDPALKPWHGALSRQGIRSLLVVPLLVRQQVAGALALHAGEEGFFDQSRRALFELMAREIGRGLERHDALERSHRAETELAFLAQ”, for which the protein production result was “failed”.

In the case of “MIKQDVICYEKEDVVKRNNINITGGGEKTVLLAHGFGCDQNMWRFMLPELEKQFTVIVFDYVGSGQSDLESFSTKRYSSLEGYAKDVEEILVALDLVNVSIIGHSVSSIIAGIASTHVGDRISDITMICPSPCFMNFPPDYVGGFERDDLEELINLMDKNYIGWANYLAPLVMGASHSSELIGELSGSFCTTDPIVAKTFAKATFFSDYRSLLEDISTPALIFQSAKDSLASPEVGQYMAENIPNSQLELIQAEGHCLHMTDAGLITPLLIHFIQNNQTRA”, the protein production result is “not failed”.

Turning to “MMRYKEEKEVKKEAFRKYLESSGVLDSLTKVLVSLYEQNDKPSSALEFIQQKLGGPSVSDYEKLQAEKSDLQIKYNELLAKHQETLRELNGVKSLHSRNSSKDDADRETLEAEHTTLVTPHH”, the protein production entry is “failed”.

Take “MSTSYQHSGPEFTEAQMQAMVDGLFAGASIGAVCNMQQEQLEAGYALAYNLYTAGNYRDAETMFRALCVYDHNDERYWLGLAGCRQAQGDLAGAIDAYGLAGAASALGDPAPFVHAGICYMKLGDTENARNTFAGVPFIGDPDNDTHAAMHRKAEAMLELLAGERP”: the protein production result was “failed”.

For the sequence “MVANLVTVVIVNYNSGEMLGKCVEHLLKSTVPIQIIISDNASSDNSLALLEQSELNKQTITIHRNNSNYGFSYANNAVFTKISTPFILYLNPDCFVENDTIENLLHTMHQHNDAGMVGCLVNNMDGSVQIGCCGLTPTPARVLNQLLKLSKIFPNNSKFGGYLFSKEKLPTKPTEVELISGSCMFVRKKAIDEVGLLDDNYFLYCEDYDWFYRFTQSNWKIIFNPNTKVTHIKSFSTKQIPFKVLLYKAKGMWRFYNKFFKENSSPATTLIIRVGIIARFFSLSGLLLFKKLLRTTS”, the protein production result was “failed”.

On to “MNKERNIIIAKNIRKFLNDSNMSQKKLAELINIKPSTLSDYLNLRSNPSHGVIQRIADVFEVGKSDIDTTYKDDNDITSIYNKLTPPRQENVLNYANEQLEEQNSKGDNVVDINSYKQEKTPVNVNGCVSAGVGERLHDETLFTEMVKGPIPTHDLALKVNGDSMEPMFKDGEIIFVEKTHNIKNGQIGIFIIEEEAYVKKVFVEDDRLTLVSLNKDYDDLHFYRNESVRLIGKVIL”, for which the protein production entry is “failed”.

For the sequence “MLGLHGRKPAQVIVEPVAKLMIKLKVTPNQLTLVSAGLTVGVALLLIPTGHLIWAAVLTGLFAAFDMIDGTVARMQGGGTKFGATLDATCDRITDGALFGAITWWLVYSYDAPQALVAASLVCLVASQVISYVKARGEASGFTMDGGLVERPERLIVSLVGLGLTGMGVPYAIDVALWALAAGSIYTVVQRLVMAGKSPLAKEFTKAPAGAKADYSNTK”, the protein production result is “failed”.

In the case of “DSRQRFKRQMVEQAAPWLLELSARTGLVTDLSSFDGESLEVLESAVPEVLRKRYPSNSRIVGQHASLFHSAMGKACLGALASAEVERLAEQEQVPAEARQQCLESQHLGFGQRTEGHWEYPVRLPFLIRAVALPLQAEGRVIGSIALHWPRDLACVEQVRNRHLWLLAETVERVQKDI”, the protein production entry is given as “failed”.

For “MSLSGALKENSGKPSEVEYTHFKDLQALEMERGRLYETIVVTWDDSMVGNAAPIGVLCTGDDTVTLYLYQGTRTVENVLNNGRFTVNVTLDPLIFTDSTLGDLEEDMFSHYRDFLHLRGADAFFTAEVVSVKKLVKRDRFGESELHVVKARAGDVMRAESFRMALNRGIYAVIESLIAYTRAEFSDPLVLRERIAEMNRVARKVGGPREKEAMRRIIQALESKISEGHHHHHH”, the protein production result is “not failed”.

On to “MIRPTVQENFSRYADCIAACNAAAAACLKCAAACLEEPDTRKMTRCIALDMDCAGIANLAASYMLRNSEFAPLVCEDCAEVCKWCKEECERYDHWHCQECAKACAACMEMCLKMTA”, for which the protein production result is “failed”.

“MNKQNKQNKFSPEVRERSVRLVQEHRGEYPSLWAAVESIAPKIGCVPSTLLEWVKRSEINNGAREGLTSSERDRLKALERENRELRRANEILKTASAFFAQAELDRVLKKLEHHHHHH”: the protein production entry was “not failed”.

For “MEFTAEQLSQYNGTDESKPIYVAIKGRVFDVTTGKSFYGSGGDYSMFAGKDASRALGKMSKNEEDVSPSLEGLTEKEINTLNDWETKFEAKYPVVGRVVS”, the protein production result is recorded as “not failed”.

Turning to “MSSSQQIAKNARKAGNILKTISNEGRSDILYKIHDALKANAHAIEEANKIDLAVAKETGLADSLLKRLDLFKGDKFEVMLQGIKDVAELEDPVGKVKMARELDDGLTLYQVTAPVGVLLVIFESRPEVIANITALSIKSGNAAILKGGKESVNTFREMAKIVNDTIAQFQSETGVPVGSVQLIETRQDVSDLLDQDEYIDLVVPRGSNALVRKIKDTTKIPVLGHADGICSIYLDEDADLIKAKRISLDAKTNYPAGCNAMETLLINPKFSKWWEVLENLTLEGGVTIHATKDLKTAYFDKLNELGKLTEAIQCKTVDADEEQDFDKEFLSLDLAAKFVTSTESAIQHINTHSSRHTDAIVTENKANAEKFMKGVDSSGVYWNASTRFADGFRYGFGAEVGISTSKIHARGPVGLDGLVSYQYQIRGDGQVASDYLGAGGNKAFVHKDLDIKTVTLZ”, the protein production entry is “not failed”.

In the case of “MRILDYDKVIERILEFIREKGNNGVVIGISGGVDSATVAYLATKALGKEKVLGLIMPYFENKDVEDAKLVAEKLGIGYKVINIKPIVDSFVENLELNLDRKGLGNIMSRTRMIMLYAHANSLGRIVLGTSNRSEFLTGYFTKWGDGASDYAPIINLYKTEVWEIAKRIGVPERIVKKKPSAGLWEGQTDEDELGISYNLLDEILWRMIDLKIGKEEIAKDLGIPLSLVERVEELIKKSEHKRRLPIGPSFEDLIVGP”, the protein production entry is listed as “not failed”.
